What was measured:
[1] = target: dasTMPRSS2 (active TMPRSS2 ectodomain with DDDDK zymogen activation motif) (human) (UniProt O15393)
[2] = target: dasTMPRSS11D (active, autocleaved TMPRSS11D with DDDDK zymogen activation motif) (human) (UniProt O60235)
[3] = target: dasTMPRSS2 (active TMPRSS2 ectodomain with DDDDK zymogen activation motif) (human) (UniProt O15393); remark: listed apart in the source

dasTMPRSS2 (active TMPRSS2 ectodomain with DDDDK zymogen activation motif) (human), sequence (O15393 other isoform, or with tags, fused parts or gaps, chain 1 of 2): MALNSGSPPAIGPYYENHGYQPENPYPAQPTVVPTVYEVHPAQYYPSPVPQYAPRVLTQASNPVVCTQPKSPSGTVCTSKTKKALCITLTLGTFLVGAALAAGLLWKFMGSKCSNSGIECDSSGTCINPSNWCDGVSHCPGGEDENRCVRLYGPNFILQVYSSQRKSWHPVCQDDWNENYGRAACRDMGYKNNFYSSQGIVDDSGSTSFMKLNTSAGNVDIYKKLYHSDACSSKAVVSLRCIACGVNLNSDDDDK
dasTMPRSS2 (active TMPRSS2 ectodomain with DDDDK zymogen activation motif) (human), sequence (O15393 256-492, chain 2 of 2): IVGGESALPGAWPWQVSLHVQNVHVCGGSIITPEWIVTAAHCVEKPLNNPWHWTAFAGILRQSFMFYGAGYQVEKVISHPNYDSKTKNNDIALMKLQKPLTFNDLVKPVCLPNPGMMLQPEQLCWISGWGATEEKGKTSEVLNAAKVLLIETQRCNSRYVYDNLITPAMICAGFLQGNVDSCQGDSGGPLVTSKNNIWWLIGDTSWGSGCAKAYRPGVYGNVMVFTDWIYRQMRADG
dasTMPRSS11D (active, autocleaved TMPRSS11D with DDDDK zymogen activation motif) (human), sequence (O60235 other isoform, or with tags, fused parts or gaps L182D | S183D | E184D | Q185D | R186K, chain 1 of 2): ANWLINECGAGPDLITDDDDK
dasTMPRSS11D (active, autocleaved TMPRSS11D with DDDDK zymogen activation motif) (human), sequence (O60235 187-418, chain 2 of 2): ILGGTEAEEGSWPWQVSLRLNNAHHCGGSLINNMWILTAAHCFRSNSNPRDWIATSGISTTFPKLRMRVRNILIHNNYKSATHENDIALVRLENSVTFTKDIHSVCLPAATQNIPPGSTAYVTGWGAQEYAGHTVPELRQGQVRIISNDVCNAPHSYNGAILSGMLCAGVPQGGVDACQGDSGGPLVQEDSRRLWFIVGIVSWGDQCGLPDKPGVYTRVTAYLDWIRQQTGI

Substance | IC50 of inhibition of dasTMPRSS2 (1.5 nM) peptidase activity on Boc-QAR-AMC (100 µM), 10 min pre-incubation [1] [nM] | IC50 of inhibition of dasTMPRSS11D (15 nM) peptidase activity on Boc-QAR-AMC (100 µM) [2] [nM] | IC50 of inhibition of dasTMPRSS2 (1.5 nM) peptidase activity on Boc-QAR-AMC (100 µM) [3] [nM]
Peptidomimetic 1, Ac-Glu-Gln-Arg-kbt (peptide) | 2.2 | – | –
Peptidomimetic 4, Ac-Glu-D-Glu-Arg-kbt (peptide) | – | 111 | 42
Peptidomimetic 2, Ac-Gln-Ser-Arg-kbt (peptide) | 2.1 | – | –
Peptidomimetic 5, Ac-Glu-Orn-Arg-kbt (peptide) | – | 2100 | 6.2
Peptidomimetic 3, Ac-Glu-Glu-Arg-kbt (peptide) | – | 7.1 | 3.2

— publication PMC12065894
